{"source": "the RNAGym collection of RNA variant scans (doi:10.1073/pnas.2313332121)", "parents": {"B1": {"name": "TPR t1 (parent)", "chain": "GACCAAUCUGCCCUCAGAGCUCGAGAACAUCUUCGGAUGCAGAGGAGGCAGGCUUCGGUGGCGCGAUAGCGCCAACGUCCUCAACCUCCAAUGCAUCCCACCACAUGAUGAUGCCUGAAGAGCCUUGGUUUUUUG"}}}
{"variants_of": "B1", "test": "polymerase ribozyme fitness, log enrichment relative to wild type (log ratio); higher = more active; in vitro selection for triplet polymerase activity", "summary_of_the_method": "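A heterodimeric triplet polymerase ribozyme had each of its subunits mutagenized by PCR into a library, which was transcribed. One round of in vitro selection, done in triplicate, annealed each library with a biotinylated primer, its partner subunit and triplets, then incubated it frozen at −7 °C before gel excision of extended constructs, streptavidin-bead capture and RT-PCR. Fitness is the logarithm of genotype enrichment relative to wild-type enrichment, based on Illumina sequencing of inputs and outputs and inverse-variance-weighted replicate averages. A base-2 logarithm is used, and genotypes were kept only with ≥10 input reads and ≥1 read per output.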"}
{"variant": "GACCAAUCUGCCCUCAGAGCUCGAGAACAUCUUCGGAUGCAGAGGAGGCAGGCUUCGGUGUCGCGAUAGCGCCAACGUCCUCAACCUCCAAUGCAUGCCACCACAUGAUGAUGCCUGAAGAUCCUUGGUUUUUUG", "polymerase ribozyme fitness (log ratio)": -3.87}
{"variant": "GACCAAUCUGCCCUCAGAGCUCGAGAACAUCUUCGGAUGCAGAGGAGGCAGGCUUCGGUGUCGCGAUAGCGCCAACGUCCUCACCCUCCAAUGCAUCCCACCACAUGAUGAUGCCUGAAGAGCCUUGGUUUUUUG", "polymerase ribozyme fitness (log ratio)": 0.447}
{"variant": "GACCAAUCUGCCCUCAGAGCUCGAGAACAUCUUCGGAUGCAGAGGAGGCAGGCUUCGGUGUCGCGAUAGCGCCAACGUCCUCAACCUCUAAGGCAUCCCACCACAUGAUGAUGCCUGAAGAGCCUUGGUUUUUUG", "polymerase ribozyme fitness (log ratio)": -3}
{"variant": "GACCAAUCUGCCCUCAGAGCUCGAGAACAUCUUCGGAUGCAGAGGAGGCAGGCUUCGGUGUCGCGAUAGCGCCAACGUCCUCAACCUCCAAUGCAUCUCACCACAUGAUGAUGCCUGAAGAGCCUUGGCUUUUUG", "polymerase ribozyme fitness (log ratio)": -0.95}
{"variant": "GACCAAUCUGCCCUCAGAGCUCGAGAACAUCUUCGGAUGCAGAGGAGGCAGGCUUCGGUGUCGCGAUAGCGCCACCGUCCUCAACCUCCAAUGCAUCCCACCACAUGAUGAUGCCUGAAGAGCCUUGGUUUUUUG", "polymerase ribozyme fitness (log ratio)": -0.117}
{"variant": "GACCAAUCUGCCCUCAGAGCUCGAGAACAUCUUCGGAUGCAGAGGAGGCAGGCUUCGGUGUCGCGAUAGCGCCAACGUCCUCAACCUCCAAUGCAUCCCAUCACAUGAUGAUGCCUGAGGAGCGUUGGUUUUUUG", "polymerase ribozyme fitness (log ratio)": 1.72}
{"variant": "GACCAAUCUGCCCUCAGAGCUCGAGAACAUCUUCGGAUGCAGAGGAGGCAGGCUUCGGUGUCGCGAUAGCGCCAACGUCCUGAAUCUCCAAUGCAUCCCACCACAUGAUGAUGCCUGAUGAGCCUUGGUUUUUUG", "polymerase ribozyme fitness (log ratio)": -0.891}
{"variant": "GACCAAUCUGCCCUCAGAGCUCGAGAACAUCUUCGGAUGCAGAGGAGGCAGGCUUCGGUGUCGCGAUAGCGCCAACGUCCUCAACCUCCAAUGCAUCCCACCAAAUGAUGAUGCCUGAAGAGCCUUGGUUUUUUG", "polymerase ribozyme fitness (log ratio)": -1.7}
{"variant": "GACCAAUCUGCCCUCAGAGCUCGAGAACAUCUUCGGAUGCAGAGGAGGCAGGCUUCGGUGUCGCGAUAGCGCCAACGUCCUCCACCUCCAAUGCAUCCCACCAAAUGAUGAUGCUUGAAGAGCCUUGGUUUUUUG", "polymerase ribozyme fitness (log ratio)": -4.01}
{"variant": "GACCAAUCUGCCCUCAGAGCUCGAGAACAUCUUCGGAUGCAGAGGAGGCAGGCUUCGGUGUCGUGAUAGCGCCAACGUCCUCAACCUCCAAUGCAUCCCACCACAUGAUGAUGCCUGAAGAGCCUUGGUUUUUUG", "polymerase ribozyme fitness (log ratio)": -3.25}
{"variant": "GACCAAUCUGCCCUCAGAGCUCGAGAACAUCUUCGGAUGCAGAGGAGGCAGGCUUCGGUGUCGCGAUAGCGCCAACGUCCUCAAGCUCCAAUGCAUUCCACCACAUGAUGAUGCCUGAAGAGCCUUGGUUUUUUG", "polymerase ribozyme fitness (log ratio)": -3.66}
{"variant": "GACCAAUCUGCCCUCAGAGCUCGAGAACAUCUUCGGAUGCAGAGGAGGCAGGCUUCGGUGUCGCGAUAGCGCCAACGUCCUCAACCUCCAAUGCAUCCCACCACAUGAUGAUGCCUGAAGGGCCUUGGUUUUUUG", "polymerase ribozyme fitness (log ratio)": 2.12}
{"variant": "GACCAAUCUGCCCUCAGAGCUCGAGAACAUCUUCGGAUGCAGAGGAGGCAGGCUUCGGUGUCGCGAUAGCGCCAACGUCCUCAACCUCCAAUGCAUCCCACCACAUGAUGAUGCCUGAAGCGCCUUGGUUUUUUG", "polymerase ribozyme fitness (log ratio)": 1.94}
{"variant": "GACCAAUCUGCCCUCAGAGCUCGAGAACAUCUUCGGAUGCAGAGGAGGCAGGCUUCGGUGUCGCGAUAGCGCCAACGUCCUCAGCCUCCAAUUCAUCCCACCACAUGAUGAUGCCUGAAUAGCCUUGGUUUUUUG", "polymerase ribozyme fitness (log ratio)": -0.773}
{"variant": "GACCAAUCUGCCCUCAGAGCUCGAGAACAUCUUCGGAUGCAGAGGAGGCAGGCUUCGGUGUCGCGAUAGCGCCAACGUCCUCUACCUCCACUGCAACCCACCACAUGAUGAUGCCUGAAGAGCCUUGGUUUUUUG", "polymerase ribozyme fitness (log ratio)": -1.27}
{"variant": "GACCAAUCUGCCCUCAGAGCUCGAGAACAUCUUCGGAUGCAGAGGAGGCAGGCUUCGGUGUCGCGAUAGCGCCAACGUCCUCAACCUACAAUGCAUCCCACCACAUGAUGAUGCCUGAAGAGCCUUGGUUUUUUG", "polymerase ribozyme fitness (log ratio)": -1.18}
{"variant": "GACCAAUCUGCCCUCAGAGCUCGAGAACAUCUUCGGAUGCAGAGGAGGCAGGCUUCGGUGUCGCGAUAGCGCCAACGUCCUCAACCUGCAAUGCAUCCCACCACAUGAUGAUGCCUGAAGAGCCUUGGUUUUUUG", "polymerase ribozyme fitness (log ratio)": -1.3}
{"variant": "GACCAAUCUGCCCUCAGAGCUCGAGAACAUCUUCGGAUGCAGAGGAGGCAGGCUUCGGUGUCGCGAUAGCGCCAACGUCCUCAACCUCCAAUGCAUCCCACCACAUGAUGUUGCCUGAAGAGCCUUGGUUUUUUG", "polymerase ribozyme fitness (log ratio)": -1.75}
{"variant": "GACCAAUCUGCCCUCAGAGCUCGAGAACAUCUUCGGAUGCAGAGGAGGCAGGCUUCGGUGUCGCGAUAGCGCCAACGUCCUCAACCUCGAUUGCAUCCCACCACAUGAUGAUGCCUGAAGAGCUUUGGUUUUUUG", "polymerase ribozyme fitness (log ratio)": -0.422}
{"variant": "GACCAAUCUGCCCUCAGAGCUCGAGAACAUCUUCGGAUGCAGAGGAGGCAGGCUUCGGUGUCGCGAUAGCGCCAACGUCCUCAACCUCCAAUGCAUCCCAGCACAAGAUGAUGCCUGAAGAGCCUUGGUUUUUUG", "polymerase ribozyme fitness (log ratio)": 0.513}
{"variant": "GACCAAUCUGCCCUCAGAGCUCGAGAACAUCUUCGGAUGCAGAGGAGGCAGGCUUCGGUGUCGCGAUAGCGCUAACGUCCUCAACCUCCAAUUCAUCCCACCACAUGAUGAUGCCUGAAGAGCCUUGGUUUUUUG", "polymerase ribozyme fitness (log ratio)": -2.38}
{"variant": "GACCAAUCUGCCCUCAGAGCUCGAGAACAUCUUCGGAUGCAGAGGAGGCAGGCUUCGGUGUAGCGAUAGCGCCAACGUCCUCAACCUCCAAUGCAUCCCACCACAUGAUGAAGCCUGAAGAGCCUUGAUUUUAUG", "polymerase ribozyme fitness (log ratio)": -5.42}
{"variant": "GACCAAUCUGCCCUCAGAGCUCGAGAACAUCUUCGGAUGCAGAGGAGGCAGGCUUCGGUGUCGCGAUAGCGCCAACGUCAUCAACCUCCAAUGCAUCCCAACACAUGAUGAUGCCUGAAGAGCCUUGGUUUUUUG", "polymerase ribozyme fitness (log ratio)": -4.47}
{"variant": "GACCAAUCUGCCCUCAGAGCUCGAGAACAUCUUCGGAUGCAGAGGAGGCAGGCUUCGGUGUCGCGAUAGCGCCAACGUCCUUAACCUCCAAUGCAUCCCACCACAUGAUGAUGCCUGAAGAGCCUUGGUUUUUUG", "polymerase ribozyme fitness (log ratio)": -0.605}
{"variant": "GACCAAUCUGCCCUCAGAGCUCGAGAACAUCUUCGGAUGCAGAGGAGGCAGGCUUCGGUGUCGCGAUAGCGCCAACGUCCUGAACCUCCAAUGCAUCCCCCCACAUGAUGAUUCCUGAAGAGCCUUGGUUUUUUG", "polymerase ribozyme fitness (log ratio)": -5.11}
{"variant": "GACCAAUCUGCCCUCAGAGCUCGAGAACAUCUUCGGAUGCAGAGGAGGCAGGCUUCGGUGUCGCGAUAGCGCCAACGUCCUCAAGCUCCAAUGCAUCCCACCACAUGAUGAUGCCUGAAGAGCCUUGGUUUUUUG", "polymerase ribozyme fitness (log ratio)": -2.33}
{"variant": "GACCAAUCUGCCCUCAGAGCUCGAGAACAUCUUCGGAUGCAGAGGAGGCAGGCUUCGGUGUCGCGAUAGCGCCAACGUCCUCAACUUCCAAUGCAUCCCACCACAUGAUGAUGCCUGAAGAGCCUUGGUUUUUUU", "polymerase ribozyme fitness (log ratio)": -1.31}
{"variant": "GACCAAUCUGCCCUCAGAGCUCGAGAACAUCUUCGGAUGCAGAGGAGGCAGGCUUCGGUGUCGCGAUAGCGCCAACGUCCUCAACCUCCAAUGCAUCCCACAACAUGAUGAUGCCUGAAGAGCCUUGGUUUUUUG", "polymerase ribozyme fitness (log ratio)": -2.05}
{"variant": "GACCAAUCUGCCCUCAGAGCUCGAGAACAUCUUCGGAUGCAGAGGAGGCAGGCUUCGGUGUCGCGAUAGCGCCAACGUCCUCAACUUCCAAUGCAUCCCACCACAUGAUGAUGCCUGAAGAGCCUUGGUUUUUUG", "polymerase ribozyme fitness (log ratio)": -0.781}
{"variant": "GACCAAUCUGCCCUCAGAGCUCGAGAACAUCUUCGGAUGCAGAGGAGGCAGGCUUCGGUGUCGCGAUAGCGCCAACGUUCUCAACCUCCAAUGCAUCCCACCACAUGAUGAUGCCUGAAGAGCCUUGGUUUUUUG", "polymerase ribozyme fitness (log ratio)": 0.149}
{"variant": "GACCAAUCUGCCCUCAGAGCUCGAGAACAUCUUCGGAUGCAGAGGAGGCAGGCUUCGGUGUCGCGAUAGCGCCAACGUCCUCAAGCUCCAAUGCAUCCCACCACAUGAUGAUGCCUGAAGAGCCUUCGUUUUUUG", "polymerase ribozyme fitness (log ratio)": -2.41}
{"variant": "GACCAAUCUGCCCUCAGAGCUCGAGAACAUCUUCGGAUGCAGAGGAGGCAGGCUUCGGUGUCGCGAUAGCGCCAACGUCCUCAACCUCCAAUGCAUGCCACCACAUGAUGAUGCCUGAAGAGCCUUGGUUUUUUG", "polymerase ribozyme fitness (log ratio)": -4.15}
{"variant": "GACCAAUCUGCCCUCAGAGCUCGAGAACAUCUUCGGAUGCAGAGGAGGCAGGCUUCGGUGUCGCGAUAGCGCCAACGUACUCAACCUCCAAUGCAUCCCACUACAUGAUGAUGCCUGAAGAGCCUUGGUUUUUUG", "polymerase ribozyme fitness (log ratio)": -3.26}
{"variant": "GACCAAUCUGCCCUCAGAGCUCGAGAACAUCUUCGGAUGCAGAGGAGGCAGGCUUCGGUGUCGCGAUAGCGCCAACGUCCUCAACCUCCAAUGCAUCCCCCCACAUGAUGAUGCCUGAAGAGCCUUGGUUUUGUG", "polymerase ribozyme fitness (log ratio)": -1.29}
{"variant": "GACCAAUCUGCCCUCAGAGCUCGAGAACAUCUUCGGAUGCAGAGGAGGCAGGCUUCGGUGUCGCGAUAGCGCCAACGUACUCAACCUCCAAUGCAUCCCACCACAUGAUUAUGCCUGAAGAGCCUUGGUUUUUUG", "polymerase ribozyme fitness (log ratio)": -3.28}
{"variant": "GACCAAUCUGCCCUCAGAGCUCGAGAACAUCUUCGGAUGCAGAGGAGGCAGGCUUCGGUGUCGCGAUAGCGCCAACGUCCUCAACCUCCAAUGCAUCCCAUCACAUGAUGAUGCCUGAAGAGCCUUGGUUUUUUG", "polymerase ribozyme fitness (log ratio)": 0.0554}
{"variant": "GACCAAUCUGCCCUCAGAGCUCGAGAACAUCUUCGGAUGCAGAGGAGGCAGGCUUCGGUGUCGCGAUAGCGCCAACGUCCUCAACCUCCAAUGCAUCCCAACACAUGAUGAUGCCUGAAGAGCCUUGGUUUUUUG", "polymerase ribozyme fitness (log ratio)": -1.33}
{"variant": "GACCAAUCUGCCCUCAGAGCUCGAGAACAUCUUCGGAUGCAGAGGAGGCAGGCUUCGGUGUCGCGAUAGCGCCAACGUCCUCAACCUCCAAUGCGUCCCACCACAUGAUGAUGCCUGAAGAGCUUUGGUUUUUUG", "polymerase ribozyme fitness (log ratio)": 1.97}
{"variant": "GACCAAUCUGCCCUCAGAGCUCGAGAACAUCUUCGGAUGCAGAGGAGGCAGGCUUCGGUGUCGCGAUAGCGACAACGUCCUCAACCUCCAAUGCAUCCCACCACAUGAUGAUGCCUGAAGAGCCUUGGUUUUUUG", "polymerase ribozyme fitness (log ratio)": 0.45}
{"variant": "GACCAAUCUGCCCUCAGAGCUCGAGAACAUCUUCGGAUGCAGAGGAGGCAGGCUUCGGUGUCGCGAUAGCGGCAACGUCCUCAACCUCCAAUGCAUCCCACCACAUGAUGAUGCCUGAAGAGCCUUGGUUUUUUG", "polymerase ribozyme fitness (log ratio)": -0.168}
{"variant": "GACCAAUCUGCCCUCAGAGCUCGAGAACAUCUUCGGAUGCAGAGGAGGCAGGCUUCGGUGUUGCGAUAGCGCCAACGUCCUCAACCUCCAAUGCAUCCCACCACAUGAUGAUGCCUGAAGAGCCUUGGUUUUUUG", "polymerase ribozyme fitness (log ratio)": -3.5}
{"variant": "GACCAAUCUGCCCUCAGAGCUCGAGAACAUCUUCGGAUGCAGAGGAGGCAGGCUUCGGUGUCGCGAUAGCGCCAACGUCCUCAACCUCCAAUGCAUCCCACCACAUGAUGAUGUCUGAAGAGCCUUGGUUUUUUG", "polymerase ribozyme fitness (log ratio)": -0.943}
